Data as given in the nanobody polyreactivity screen of Harvey et al. (2022).

Experiment: yeast display, Sf9 membrane polyspecificity reagent, FACS + sequencing; frameworks hold sequencing errors
In short: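 Using colony PCR, genes from sorted yeast display clones were amplified, then sequenced on MiSeq at 2 × 250 and filtered by CDR length. The clones had been stained with 10% biotinylated, detergent-solubilized Sf9 membrane reagent for 1 hour at 4 °C and sorted by FACS into low and high (top ~1%) gates on anti-HA and streptavidin fluorescence. Polyreactivity labels come from the gate of origin.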

| Sequence | polyreactivity (PSR sort gate) |
| --- | --- |
| QVQLVESGGGLVQAGGSLRLSCAASGIIFRLYAMGWYRQAPGKERELVAAISYRGGSTYYADSVKGRFTISRDNAKNTVYLQMNSLKPEDTAVYYCAGRNPRYSFYYWGQGTQVTVSS | high polyreactivity |
| QVQLVESGGGLVQAGGSLRLSCAASGIIFRLYGMGWYIQAPGKEREFVATITWRGGRTNYADSVKGRFTISRDNAKNTVYLQMNSLKPEDTAVYYCAAGSAPSYWGGWYYERDYWGQGTQVTVSS | low polyreactivity |
| QVQLVESGGGLVQAGGSLRLSCAASGIIFRNYAMGWYRQAPGKEREFVASITKRGGSTYYADSVKGRFTISRDNAKNTVYLQMNSLKPEDTAVYYCNTQWYRGRTEYGYWGQGTQVTVSS | high polyreactivity |
| QVQLVESGGGLVQAGGSLRLSCAASGIIFRNYAMGWYRQAPGKERELVAAISRNGGSTYYADSVKGRFTISRDNAKNTVYLQMNSLKPEDTAVYYCAAVSPGTVTNGKSRDYWGQGTQVSVSS | high polyreactivity |
| QVQLVESGGGLVQAGGSLRLSCAASGIIFRPYAMGWYRQAPGKERELVAAITGSGVSTYYADSVKGRFTISRDNAKNTVYLQMNSLKPEDTAVYYCAARYDVHYDGMDYWGQGTQVTVSS | low polyreactivity |
| QVQLVESGGGLVQAGGSLRLSCAASGIIFRPYAMGWYRQAPGKEREMVAAITWSGTSTYYADSVKGRFTISRDNAKNTVYLQMNSLKPEDTAVYYCAATWSYGVSWYEYWGQGTQVTVSS | high polyreactivity |
| QVQLVESGGGLVQAGGSLRLSCAASGIIFRRYAMGWYRQAPGKERELVAAISWSGGSTYYADSVKGRFTISRDNAKNTVYLQMNSLKPEDTAVYYCAAAAYTRDEYDYWGQGTQVTVSS | high polyreactivity |
| QVQLVESGGGLVQAGGSLRLSCAASGIIFRRYAMGWYRQAPGKERELVAAITGSGGSTYYADSVKGRFTISRDNAKNTVYLQMNSLKPEDTAVYYCAAKGYPSRYSYGWYNYWGQGTQVTVSS | high polyreactivity |
| QVQLVESGGGLVQAGGSLRLSCAASGIIFRRYAMGWYRQAPGKERQLVARISFRGGSTYYADSVKGRFTISRDNAKNTVYLQMNSLKPEDTAVYYCNRDPRYSKEVDGDYWGQGTQVTVSS | high polyreactivity |
| QVQLVESGGGLVQAGGSLRLSCAASGIIFRRYAMGWYSQAPVKERELVAAITGSGGSPYYADSVKGRFTISRDNAKNTVYLQMNSLKPEDTAVYYCAAQSVLRFASSRYNSWGQGTQVTVSS | high polyreactivity |
| QVQLVESGGGLVQAGGSLRLSCAASGIIFRSNAMGWYRQAPVKETELVAAITGRGTRTYFADSVKGRFTISRDYAKYRVYFQMNSLKPEDTAVYYCNKGQTRGMGYWGQGTQVTVSS | high polyreactivity |
| QVQLVESGGGLVQAGGSLRLSCAASGIIFRSYTMGWYRQAPGKERELVASITRSGGITYYADSVKGRFTISRDNAKNTVYLQMNSLKPEDTAVYYCAARHRYYYQYRSDYWGQGTQVSVSS | high polyreactivity |
| QVQLVESGGGLVQAGGSLRLSCAASGIIFRTNAMGWYRQAPGKERDFVAAISAGGTRTYYADSVKGRFTISRDNAKNTVYLQMNSLKPEDTAVYYCAARYPEYETEDDYWGQGTQVTVSS | high polyreactivity |
| QVQLVESGGGLVQAGGSLRLSCAASGIIFRTYAMGWYRQAPGKERELVAAINSDGSTYYADSVKGRFTISRDNAKNTVYLQMNSLKPEDTAVYYCAAVVWRIHAYYWAVDGWYYYWGQGTQVTVSS | high polyreactivity |
| QVQLVESGGGLVQAGGSLRLSCAASGIIFRVNTIGWDRQAPGKEREMVARITGAGNTYYADSVNGRCTISRDNAKNSVYLQMNSLKPKDTAVYYCAVREFDKRRVIYYYWGQGTQVTVLS | high polyreactivity |
| QVQLVESGGGLVQAGGSLRLSCAASGIIFRVYAMGWYRQAPGKERELVAAITKGGGRTYYADSVKGRFTISRDNAKNTVYLQMNSLKPEDTAVYYCAARSSSSFEYWGQGTQVTVSS | high polyreactivity |
| QVQLVESGGGLVQAGGSLRLSCAASGIIFRVYAMGWYRQAPGKERELVATITWSGGSTFYADSVKGRFTISRDNAKNTVYLQMNSLKPEDTAVYYCAKRGYVRSGLGRPYADDYWGQGTQVTVSS | low polyreactivity |
